First the molecules themselves.
B1: Example 21 (peptide)
peptide: cyclo(YR[Cit]FRV[dP]RR[2Nal]VY[Cit]K[dP]P)
SMILES: CC(C)[C@@H]1NC(=O)[C@H](Cc2ccc3ccccc3c2)NC(=O)[C@H](CCCNC(=N)N)NC(=O)[C@H](CCCNC(=N)N)NC(=O)[C@H]2CCCN2C(=O)[C@H](C(C)C)NC(=O)[C@H](CCCNC(=N)N)NC(=O)[C@H](Cc2ccccc2)NC(=O)[C@H](CCCNC(N)=O)NC(=O)[C@H](CCCNC(=N)N)NC(=O)[C@H](Cc2ccc(O)cc2)NC(=O)[C@@H]2CCCN2C(=O)[C@H]2CCCN2C(=O)[C@H](CCCCN)NC(=O)[C@H](CCCNC(N)=O)NC(=O)[C@H](Cc2ccc(O)cc2)NC1=O
B2: Example 107 (peptide)
peptide: cyclo(FR[Cit]CRG[dP]RRWCY[Cit]K[dP]P)
modifications: disulfide 4-11
SMILES: N=C(N)NCCC[C@@H]1NC(=O)[C@@H]2CSSC[C@H](NC(=O)[C@H](Cc3c[nH]c4ccccc34)NC(=O)[C@H](CCCNC(=N)N)NC(=O)[C@H](CCCNC(=N)N)NC(=O)[C@H]3CCCN3C(=O)CNC1=O)C(=O)N[C@@H](Cc1ccc(O)cc1)C(=O)N[C@@H](CCCNC(N)=O)C(=O)N[C@@H](CCCCN)C(=O)N1CCC[C@@H]1C(=O)N1CCC[C@H]1C(=O)N[C@@H](Cc1ccccc1)C(=O)N[C@@H](CCCNC(=N)N)C(=O)N[C@@H](CCCNC(N)=O)C(=O)N2
B3: Example 110 (peptide)
peptide: cyclo(YRTCRG[dP][Dab]RWCYQK[dP]P)
modifications: disulfide 4-11
SMILES: C[C@@H](O)[C@@H]1NC(=O)[C@H](CCCNC(=N)N)NC(=O)[C@H](Cc2ccc(O)cc2)NC(=O)[C@@H]2CCCN2C(=O)[C@H]2CCCN2C(=O)[C@H](CCCCN)NC(=O)[C@H](CCC(N)=O)NC(=O)[C@H](Cc2ccc(O)cc2)NC(=O)[C@@H]2CSSC[C@H](NC1=O)C(=O)N[C@@H](CCCNC(=N)N)C(=O)NCC(=O)N1CCC[C@@H]1C(=O)N[C@@H](CCN)C(=O)N[C@@H](CCCNC(=N)N)C(=O)N[C@@H](Cc1c[nH]c3ccccc13)C(=O)N2
B4: Example 111 (peptide)
peptide: cyclo(YR[Cit]C[Dab]G[dP]RRWCYQK[dP]P)
modifications: disulfide 4-11
SMILES: N=C(N)NCCC[C@@H]1NC(=O)[C@H](CCCNC(=N)N)NC(=O)[C@H]2CCCN2C(=O)CNC(=O)[C@H](CCN)NC(=O)[C@@H]2CSSC[C@H](NC(=O)[C@H](Cc3c[nH]c4ccccc34)NC1=O)C(=O)N[C@@H](Cc1ccc(O)cc1)C(=O)N[C@@H](CCC(N)=O)C(=O)N[C@@H](CCCCN)C(=O)N1CCC[C@@H]1C(=O)N1CCC[C@H]1C(=O)N[C@@H](Cc1ccc(O)cc1)C(=O)N[C@@H](CCCNC(=N)N)C(=O)N[C@@H](CCCNC(N)=O)C(=O)N2
B5: Example 108 (peptide)
peptide: cyclo(YR[Cit]CRG[dP]RRWCYQK[dP]P)
modifications: disulfide 4-11
SMILES: N=C(N)NCCC[C@@H]1NC(=O)[C@@H]2CSSC[C@H](NC(=O)[C@H](Cc3c[nH]c4ccccc34)NC(=O)[C@H](CCCNC(=N)N)NC(=O)[C@H](CCCNC(=N)N)NC(=O)[C@H]3CCCN3C(=O)CNC1=O)C(=O)N[C@@H](Cc1ccc(O)cc1)C(=O)N[C@@H](CCC(N)=O)C(=O)N[C@@H](CCCCN)C(=O)N1CCC[C@@H]1C(=O)N1CCC[C@H]1C(=O)N[C@@H](Cc1ccc(O)cc1)C(=O)N[C@@H](CCCNC(=N)N)C(=O)N[C@@H](CCCNC(N)=O)C(=O)N2
B6: Example 106 (peptide)
peptide: cyclo(YK[Cit]CRG[dP]RRWCY[Cit]K[dP]P)
modifications: disulfide 4-11
SMILES: N=C(N)NCCC[C@@H]1NC(=O)[C@@H]2CSSC[C@H](NC(=O)[C@H](Cc3c[nH]c4ccccc34)NC(=O)[C@H](CCCNC(=N)N)NC(=O)[C@H](CCCNC(=N)N)NC(=O)[C@H]3CCCN3C(=O)CNC1=O)C(=O)N[C@@H](Cc1ccc(O)cc1)C(=O)N[C@@H](CCCNC(N)=O)C(=O)N[C@@H](CCCCN)C(=O)N1CCC[C@@H]1C(=O)N1CCC[C@H]1C(=O)N[C@@H](Cc1ccc(O)cc1)C(=O)N[C@@H](CCCCN)C(=O)N[C@@H](CCCNC(N)=O)C(=O)N2
B7: Example 109 (peptide)
peptide: cyclo(YR[Cit]CRG[dP][Dab]RWCYQK[dP]P)
modifications: disulfide 4-11
SMILES: N=C(N)NCCC[C@@H]1NC(=O)[C@@H]2CSSC[C@H](NC(=O)[C@H](Cc3c[nH]c4ccccc34)NC(=O)[C@H](CCCNC(=N)N)NC(=O)[C@H](CCN)NC(=O)[C@H]3CCCN3C(=O)CNC1=O)C(=O)N[C@@H](Cc1ccc(O)cc1)C(=O)N[C@@H](CCC(N)=O)C(=O)N[C@@H](CCCCN)C(=O)N1CCC[C@@H]1C(=O)N1CCC[C@H]1C(=O)N[C@@H](Cc1ccc(O)cc1)C(=O)N[C@@H](CCCNC(=N)N)C(=O)N[C@@H](CCCNC(N)=O)C(=O)N2
B8: Example 104 (peptide)
peptide: cyclo(YRTCRG[dP][Dab]R[2Nal]CYQK[dP]P)
modifications: disulfide 4-11
SMILES: C[C@@H](O)[C@@H]1NC(=O)[C@H](CCCNC(=N)N)NC(=O)[C@H](Cc2ccc(O)cc2)NC(=O)[C@@H]2CCCN2C(=O)[C@H]2CCCN2C(=O)[C@H](CCCCN)NC(=O)[C@H](CCC(N)=O)NC(=O)[C@H](Cc2ccc(O)cc2)NC(=O)[C@@H]2CSSC[C@H](NC1=O)C(=O)N[C@@H](CCCNC(=N)N)C(=O)NCC(=O)N1CCC[C@@H]1C(=O)N[C@@H](CCN)C(=O)N[C@@H](CCCNC(=N)N)C(=O)N[C@@H](Cc1ccc3ccccc3c1)C(=O)N2
B9: Example 103 (peptide)
peptide: cyclo(YR[Cit]CRG[dP]RR[2Nal]CY[Cit]E[dP]P)
modifications: disulfide 4-11
SMILES: N=C(N)NCCC[C@@H]1NC(=O)[C@@H]2CSSC[C@H](NC(=O)[C@H](Cc3ccc4ccccc4c3)NC(=O)[C@H](CCCNC(=N)N)NC(=O)[C@H](CCCNC(=N)N)NC(=O)[C@H]3CCCN3C(=O)CNC1=O)C(=O)N[C@@H](Cc1ccc(O)cc1)C(=O)N[C@@H](CCCNC(N)=O)C(=O)N[C@@H](CCC(=O)O)C(=O)N1CCC[C@@H]1C(=O)N1CCC[C@H]1C(=O)N[C@@H](Cc1ccc(O)cc1)C(=O)N[C@@H](CCCNC(=N)N)C(=O)N[C@@H](CCCNC(N)=O)C(=O)N2
B10: Example 105 (peptide)
peptide: cyclo(YH[Cit]CRG[dP]RRWCY[Cit]K[dP]P)
modifications: disulfide 4-11
SMILES: N=C(N)NCCC[C@@H]1NC(=O)[C@@H]2CSSC[C@H](NC(=O)[C@H](Cc3c[nH]c4ccccc34)NC(=O)[C@H](CCCNC(=N)N)NC(=O)[C@H](CCCNC(=N)N)NC(=O)[C@H]3CCCN3C(=O)CNC1=O)C(=O)N[C@@H](Cc1ccc(O)cc1)C(=O)N[C@@H](CCCNC(N)=O)C(=O)N[C@@H](CCCCN)C(=O)N1CCC[C@@H]1C(=O)N1CCC[C@H]1C(=O)N[C@@H](Cc1ccc(O)cc1)C(=O)N[C@@H](Cc1c[nH]cn1)C(=O)N[C@@H](CCCNC(N)=O)C(=O)N2

Bridges are numbered along the chain shown (N, C = ends). [ ]: non-standard residue; d: D form. 2Nal = N[C@@H](Cc1ccc2ccccc2c1)C(=O)O; Cit = NC(=O)NCCC[C@H](N)C(=O)O; Dab = NCC[C@H](N)C(=O)O

10 molecules from patent publication US20150087577A1 (POLYPHOR, published 2015) can be followed below.

The target in this experiment is human CXCR4 (human, UniProt P61073 1-352). The experiment can be described thus: cell-based or functional assay.
Sequence of human CXCR4 (P61073 whole entry): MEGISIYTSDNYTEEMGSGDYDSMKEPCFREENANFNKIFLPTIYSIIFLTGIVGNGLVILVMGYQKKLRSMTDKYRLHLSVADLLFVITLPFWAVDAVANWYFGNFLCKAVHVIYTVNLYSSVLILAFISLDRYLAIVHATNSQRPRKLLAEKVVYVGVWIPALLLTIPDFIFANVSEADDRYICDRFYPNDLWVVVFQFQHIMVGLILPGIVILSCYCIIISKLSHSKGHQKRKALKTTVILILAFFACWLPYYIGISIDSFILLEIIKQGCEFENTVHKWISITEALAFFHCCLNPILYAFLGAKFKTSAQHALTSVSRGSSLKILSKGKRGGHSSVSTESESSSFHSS
With B1, the “IC50 (nM) Ca2+ assay (method 1)” value is 550 nM.

Consider B2, for which the “IC50 (nM) Ca2+ assay (method 2)” value is 3.8 nM.

As to B3, the “IC50 (nM) Ca2+ assay (method 2)” value amounted to 1.7 nM.

In the case of B4, the “IC50 (nM) Ca2+ assay (method 2)” value was found to be 1.6 nM.

For the molecule B5, the “IC50 (nM) Ca2+ assay (method 2)” value was found to be 4.6 nM.

As to B6, the “IC50 (nM) Ca2+ assay (method 2)” value was found to be 3.1 nM.

As for B7, the “IC50 (nM) Ca2+ assay (method 2)” value was determined as 3 nM.

For the molecule B8, the “IC50 (nM) Ca2+ assay (method 2)” value worked out at 7.4 nM.

For B9, the “IC50 (nM) Ca2+ assay (method 2)” value was 18.3 nM.

Take B10: the “IC50 (nM) Ca2+ assay (method 2)” value worked out at 0.62 nM.
